# In the supplement of paper PMC7125110:
# ± gives the standard error. For part of these data: Variants at the floor of the assay were thinned out.
# B1: glmS ribozyme (parent)
# chain: AUAAAAGCGCCAGAACUACAGAAAUGUAGUUGACGAGGAGGAGGUUUAUCGAAUUUUCGGCGGAUGCCUCCAAA
# Tests used:
# Details in all cases: with glucosamine-6-phosphate
# glucosamine-6-phosphate [1] = variants of: B1; test: self-cleavage kobs at 40 uM GlcN6P; higher = faster cleavage; RNA array
# In short: (§1)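 Barcoded ribozyme variants, transcribed in situ by E. coli RNA polymerase on sequenced MiSeq chips, were followed via a hybridised Cy3 probe at 37 °C. Glucosamine-6-phosphate ranged from 40 μM to 10 mM in HEPES/KCl/Mg(OAc)2 buffer. kobs came from decay fits to per-tile medians, and kcat and KM from weighted Michaelis–Menten fits.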
# glucosamine-6-phosphate [2] = variants of: B1; test: self-cleavage kobs at 2500 uM GlcN6P; higher = faster cleavage; RNA array
# In short: as §1
# glucosamine-6-phosphate [3] = variants of: B1; test: self-cleavage kobs at 640 uM GlcN6P; higher = faster cleavage; RNA array
# In short: as §1
# glucosamine-6-phosphate [4] = variants of: B1; test: self-cleavage kobs at 10000 uM GlcN6P; higher = faster cleavage; RNA array
# In short: as §1
# glucosamine-6-phosphate [5] = variants of: B1; test: kcat; higher = faster cleavage; RNA array
# In short: as §1
# glucosamine-6-phosphate [6] = variants of: B1; test: self-cleavage kobs at 160 uM GlcN6P; higher = faster cleavage; RNA array
# In short: as §1
# glucosamine-6-phosphate [7] = variants of: B1; test: KM; higher = weaker cofactor use; RNA array
# In short: as §1
Variant,self-cleavage kobs at 40 uM GlcN6P (glucosamine-6-phosphate [1]) [s⁻¹],self-cleavage kobs at 2500 uM GlcN6P (glucosamine-6-phosphate [2]) [s⁻¹],self-cleavage kobs at 640 uM GlcN6P (glucosamine-6-phosphate [3]) [s⁻¹],self-cleavage kobs at 10000 uM GlcN6P (glucosamine-6-phosphate [4]) [s⁻¹],kcat (glucosamine-6-phosphate [5]) [s⁻¹],self-cleavage kobs at 160 uM GlcN6P (glucosamine-6-phosphate [6]) [s⁻¹],KM (glucosamine-6-phosphate [7]) [µM]
U2A A3U G32A,7.12e-05 ± 1.6e-05,0.0028 ± 0.00085,,,,,
A15C C16G,5.89e-05 ± 1.4e-05,,0.000438 ± 5.6e-05,0.00295 ± 0.00045,,,
G13U A33U G44C,< 1e-05,,,,,,
A12C C58A,,0.000104 ± 1.8e-05,,0.000291 ± 4.6e-05,0.000734 ± 2.1e-05,,
C8G U31A U56A C70A,< 1e-05,,,< 1e-05,,,
G38C U47A C70U,< 1e-05,,,,,,
A36G U55C C67U,< 1e-05,< 1e-05,< 1e-05,,,,
A36C C50A G62C,< 1e-05,,,,,,
G43U G51A U65G G66A,< 1e-05,,,,,,
C10U G40A A48C,< 1e-05,,,,,,
A39C U55G,0.000197 ± 7e-05,,0.00104 ± 0.00022,,,0.000315 ± 8.7e-05,
C10U G41U U56C C70U,< 1e-05,,,,,,
A15U C34G G66U C71U,< 1e-05,,,< 1e-05,,,
A6C G35U G38A G43U U54G C67U,< 1e-05,< 1e-05,,< 1e-05,,,
A39U C68U C71G,< 1e-05,,,4.42e-05 ± 2e-05,,,
A12C G32U C71A,< 1e-05,,,,,,
U56C G60U,< 1e-05,< 1e-05,< 1e-05,< 1e-05,,< 1e-05,
G32A C50U,< 1e-05,,< 1e-05,,,,
G59U G63U C67A,< 1e-05,,,< 1e-05,,,
C8U A15G C34U G35U A36U C68A,< 1e-05,,< 1e-05,,,< 1e-05,
A36U U45A C71G,< 1e-05,,,,,,
G35C A39G U49G C50U,< 1e-05,< 1e-05,< 1e-05,< 1e-05,,,
G37A G63A,,,,,,,278 ± 110
G35U G41U C70U,< 1e-05,,,< 1e-05,,,
A6U U31A,,8.83e-05 ± 2.1e-05,,9.85e-05 ± 2.2e-05,0.000122 ± 2.6e-05,,
U30A G35A G51A G60U,< 1e-05,,,< 1e-05,,,

Variant,self-cleavage kobs at 40 uM GlcN6P (glucosamine-6-phosphate [1]) [s⁻¹],self-cleavage kobs at 2500 uM GlcN6P (glucosamine-6-phosphate [2]) [s⁻¹],self-cleavage kobs at 640 uM GlcN6P (glucosamine-6-phosphate [3]) [s⁻¹],self-cleavage kobs at 10000 uM GlcN6P (glucosamine-6-phosphate [4]) [s⁻¹],kcat (glucosamine-6-phosphate [5]) [s⁻¹],self-cleavage kobs at 160 uM GlcN6P (glucosamine-6-phosphate [6]) [s⁻¹],KM (glucosamine-6-phosphate [7]) [µM]
G9U G41U A42G A64U C71U,< 1e-05,,,< 1e-05,,,
C10G C34A A48C U49C,< 1e-05,,,,,,
C16U G29C G37A G44A,< 1e-05,,,,,,
G9A G35A,< 1e-05,,< 1e-05,,,< 1e-05,
C8G G9A A39U U47G C68U,< 1e-05,,,,,,
C10U C50G,6.14e-05 ± 1e-05,0.00051 ± 0.0002,0.000136 ± 1.7e-05,0.000116 ± 3e-05,,9.85e-05 ± 1.3e-05,51.5 ± 26
G35U A39G,< 1e-05,< 1e-05,< 1e-05,< 1e-05,,< 1e-05,
G40U U56A,6.75e-05 ± 1.3e-05,0.00116 ± 0.00022,0.000381 ± 4.4e-05,0.00344 ± 0.00064,,0.000124 ± 3.2e-05,
A33U G40C C71A,< 1e-05,,,,,,
G43C U57A,< 1e-05,,< 1e-05,< 1e-05,,,
G7C G35U U54G,< 1e-05,< 1e-05,,< 1e-05,,,
U57C C71A,,2.96e-05 ± 1e-05,,,2.47e-05 ± 4e-06,,
G37A A53U C71U,7.9e-05 ± 3.8e-05,0.000695 ± 0.00015,0.000464 ± 8.3e-05,0.00165 ± 0.00033,0.00135 ± 0.00053,,
U30A U46G,4.09e-05 ± 1.5e-05,0.000638 ± 0.00022,,0.000702 ± 8.5e-05,0.000804 ± 0.00016,,
C34A C61U C67U,< 1e-05,,,< 1e-05,,,
A6G G9A G44A C71A,< 1e-05,< 1e-05,,< 1e-05,,,
U31C U47A U56C,,0.000487 ± 0.00011,0.000111 ± 2.5e-05,0.000707 ± 0.00012,0.00113 ± 0.00024,,5360 ± 1700
A6U G62A,< 1e-05,,,,,< 1e-05,
A12U A33U U47G U49G U55G C68U,< 1e-05,,,,,,
U31C U45A,0.000212 ± 6e-05,0.00783 ± 0.0016,0.00258 ± 0.00062,0.0108 ± 0.004,0.0175 ± 0.0045,0.000613 ± 0.00012,3890 ± 1200
G40C G43U C70A,< 1e-05,,,< 1e-05,,,
G44C G59C,< 1e-05,< 1e-05,< 1e-05,< 1e-05,,,
A15G G66A,0.000603 ± 8.4e-05,0.00542 ± 0.0014,0.00506 ± 0.0011,0.0412 ± 0.011,,0.00153 ± 0.00044,
C34A G40U G66A,< 1e-05,,,< 1e-05,,< 1e-05,
A14U G41A G44A G60A,< 1e-05,,,,,,
